We go through 19 sequences from the supplement of paper PMC9170038.

For data set [1], the system named is MS2 coat protein. Description: apparent KD of MS2 coat protein, switch ON state; designed switch direction (-1 OFF switch, 1 ON switch): 1; higher = weaker reporter binding. The conditions noted are these: FMN input: 0 or 200 uM; Eterna round: R93 (includes R88 designs). The gist of the method: (§1)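 Binding of SNAP-549-labelled MS2 coat protein was measured on designed RNA switches transcribed on-chip from Illumina sequencing clusters. The protein rose in twofold steps from 0.7 or 1.5 nM to 3 µM, with 0.8–1.5 h per step early on and 10–20 min per step later, in 100 mM Tris-HCl pH 7.5, 80 mM KCl, 4 mM MgCl2, without or with constant ligand. Each design's apparent KD is the median of fits to its normalised cluster binding curves.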

Data set [2] has as its system MS2 coat protein. The data set is described as follows: apparent KD of MS2 coat protein, switch OFF state (with FMN for OFF switches, without FMN for ON switches); designed switch direction (-1 OFF switch, 1 ON switch): 1; higher = weaker reporter binding. The note with it: FMN input: 0 or 200 uM; Eterna round: R93 (includes R88 designs). The gist of the method: as §1

As to “AUAAAAUACUGUGAGGAUAUCCAUAAUAAAACAUGAGGAUCACCCAUGUGUAGAUAAUAAUAAUGGGAGAAGGCACAUAAUAAAU [SS2 M41]”, the “apparent KD of MS2 coat protein” value in the data set on MS2 coat protein [1] turned out to be 24.2 nM; with MS2 coat protein [2] it was 27.6 nM.

As for “AUAAAUAAAAGCGAGGAUAUCCAAAAAAAAACAUGAGGAUCACCCAUGUAAAAGAAAAUAAAAUGGGAGAAGGCGCAAAAUAAAU [SS2 M 9]”, the “apparent KD of MS2 coat protein” value with MS2 coat protein [1] was found to be 21.2 nM; in the data set on MS2 coat protein [2] it was 7.54 nM.

For “AUAACAACGUAUGAGGAUAUCCUUAAUAAAACAUGAGGAUCACCCAUGUGAAUAAAAUAACAAUUGGAGAAGGCAUACGUACAAU [SS 2 M 52]”, the entries for the “apparent KD of MS2 coat protein” value with MS2 coat protein [1] and in the data set on MS2 coat protein [2] were 15.4 nM and 20.8 nM, respectively.

In the case of “AUAACACAUGAGGAUCACCCAUGUAGAUCCACGUCAGGAUAUGCAAAGAAAAUAAACAAAGCAGAAGGGACAAUAA [SS 1 Tesla 1]”, the entries for the “apparent KD of MS2 coat protein” value in the data set with MS2 coat protein [1] and in the data set on MS2 coat protein [2] were 47.3 nM and 49.6 nM, respectively.

“AUAAUAAUAAGGUAGGAUAUGCUAAAGUAAACAUGAGGAUCACCCAUGUAAAGAAAAAAACUCAUGUAGAAGGGCCAGAAAUAAA [moonwalk 4]”: the figures for the “apparent KD of MS2 coat protein” value in the data set with MS2 coat protein [1] and with MS2 coat protein [2] were 80.1 nM and 71.5 nM, respectively.

Regarding “AUUCCAACUAGUCAGGAUAUCAGGCGUAAGACAUGAGGAUCACCCAUGUACUUAGUACAAGUAACUGAGAAGGGACAGGGUGUAA [JR_SS002_Sub408]”, the entries for the “apparent KD of MS2 coat protein” value in the data set on MS2 coat protein [1] and with MS2 coat protein [2] were 20.3 nM and 25.3 nM, respectively.

Take “CAUCAUGCGCCUAAGGAUAUGUCUCACAAGACAUGAGGAUCACCCAUGUAGAAUAAAUAAACGAUGCAGAAGGUGGAGUGCAUGC [Vetimaor]”: the “apparent KD of MS2 coat protein” value stood at 56.7 nM in the data set on MS2 coat protein [1] and 361 nM with MS2 coat protein [2].

In the case of “CGAAAGGAGAGAGAGGAUAUCCAAAGGAAAACAUGAGGAUCACCCAUGUAGAAGGUAGGAGAUUGGGAGAAGGCUCAAGAUAGAG [salish99-ss2-145]”, the “apparent KD of MS2 coat protein” value is 29.5 nM in the data set on MS2 coat protein [1] and 73.2 nM with MS2 coat protein [2].

Take “CGAAGACAUGAGGAUCACCCAUGUGGGAAUAUGGGAGGAUAUACAAAGACGAGAGUCAGAGUAGAAGGCCUAGGAU [salish99-ss1-105]”: the “apparent KD of MS2 coat protein” value with MS2 coat protein [1] is 29.5 nM; in the data set on MS2 coat protein [2], 78.7 nM.

As to “CGCAGGAAGAGAGAGGAUAUCCAAAGGAAAACAUGAGGAUCACCCAUGUAAAAGGUAGGAAAUUGGGAGAAGGCUCAAGAGAGAG [salish99-ss2-100]”, the “apparent KD of MS2 coat protein” value came out at 34.3 nM in the data set with MS2 coat protein [1] and 40.9 nM with MS2 coat protein [2].

On to “CGGAGACAUGAGGAUCACCCAUGUGAGAAGAGGCGAGGAUAUCGAAAGAAAGAAGAGAAACGAGAAGGCGCGAGCC [salish99-SS1-080(!)]”, for which the “apparent KD of MS2 coat protein” value came out at 32.1 nM in the data set with MS2 coat protein [1] and 31.4 nM in the data set with MS2 coat protein [2].

Regarding “CGUGAACAUGAGGAUCACCCAUGUGAAAAACAUAGAGGAUAUGUCACAUGAGUGUAAAAGACAGAAGGCUAUCGUG [Mod 1 of Round 1 starryjess' Mod pf Nando]”, the entries for the “apparent KD of MS2 coat protein” value in the data set on MS2 coat protein [1] and with MS2 coat protein [2] were 98 nM and 152 nM, respectively.

As to “CUUAGACAUGAGGAUCACCCAUGUCGAACAAACAAAGGAUAUGGGAGCCGAAGAAGGCUAUUAGAAGGUUGCAAAA [Isesinbe]”, the “apparent KD of MS2 coat protein” value came to 26.4 nM in the data set with MS2 coat protein [1] and 28.6 nM in the data set on MS2 coat protein [2].

In the case of “GAAAAAAAAAGGCAGGAUAUCCAAAAAAAAACAUGAGGAUCACCCAUGUAAAAAAAAAAAAAAUGGGAGAAGGGCCAAAAAAAAA [Mat - Same State 2 - Mod - 151]”, the “apparent KD of MS2 coat protein” value was determined as 25.5 nM in the data set with MS2 coat protein [1] and 35.2 nM in the data set on MS2 coat protein [2].

In the case of “GAAAAACAUGAGGAUCACCCAUGUAAAAAUAUGGGAGGAUAUAGAAAGACGAAAGUCAAACUAGAAGGCCUAAAAG [Garnet 1]”, the “apparent KD of MS2 coat protein” value came to 28.1 nM in the data set on MS2 coat protein [1] and 63 nM in the data set with MS2 coat protein [2].

In the case of “GAAAAACAUGAGGAUCACCCAUGUAAGAUAAACACAGGAUAUGCGAAAAGAAAGAAAGAAGCAGAAGGGUGAAAAG [Mat - Same State 1 - Tesla mod - 42]”, the “apparent KD of MS2 coat protein” value in the data set with MS2 coat protein [1] amounted to 15.2 nM; in the data set with MS2 coat protein [2] it was 43.8 nM.

For “GAAAAACAUGAGGAUCACCCAUGUAGAAAUAUGGAAGGAUAUACAAAGACGAAAGUCAAAGUAGAAGGUCUAAAAG [Mat - Same State 1 - Eli mod - D13]”, the “apparent KD of MS2 coat protein” value amounted to 15.5 nM with MS2 coat protein [1] and 19.8 nM in the data set on MS2 coat protein [2].

“GAAAAACAUGAGGAUCACCCAUGUAGUAAUAUGGAAGGAUAUACAAAGACGUAAGUCAAAGUAGAAGGUCUAAAAG [Garnet 100]”: the “apparent KD of MS2 coat protein” value in the data set with MS2 coat protein [1] is 21.6 nM; with MS2 coat protein [2] it was 24.7 nM.

In the case of “GAAAAACAUGAGGAUCACCCAUGUGAAAACUUGGGAGGAUAUACUAAGACGAAAGUCGAAGUAGAAGGCCUAAAAG [Same State 1.4j (Mat - Mod of Eli - )]”, the “apparent KD of MS2 coat protein” value in the data set on MS2 coat protein [1] was 19 nM; with MS2 coat protein [2], 89.1 nM.
